# Results from patent US20230365685A1 (SUZHOU NEOLOGICS BIOSCIENCE, published 2023).
# Molecular target: T1, human TIM-3 (human, UniProt Q8TDQ0 22-202, limits assumed)
# T1 construct: also called HAVCR2; target antigen
# Test: BLI (Octet-96); antigen not named in the paragraph
row,Kd [nM],Binder
1,1.87,"3E6 VH4/3E6 VL0 (antibody, V domains shown, Humanized 3E6; VH and VL cloned into vectors with constant regions (CH1-FC/CL) and expressed in 293F cells; also called humanized 3E6 VH4/VL0) VH: QVQLQESGPGLVKPSQTLSLTCTVSGYSITSGFAWNWIRQPPGNGLEWIGYISHSGSTSYNPSLKSRITISVDTSKNQFSLKLSSVTAADTAVYYCARGYRSPWFAYWGQGTTVTVSS VL: DIQMTQSPSSLSASVGDRVTITCKASQNVGANVAWYQQKPGKAPKSLIYSASYRYSGVPSRFSGSGSGTDFTLTISSLQPEDFATYYCQQYNSYPTFGGGTKVEIK"
2,1.98,"3E6 VH3/3E6 VL0 (antibody, V domains shown, Humanized 3E6; VH and VL cloned into vectors with constant regions (CH1-FC/CL) and expressed in 293F cells; also called humanized 3E6 VH3/VL0) VH: QVQLQESGPGLVKPSQTLSLTCTVSGYSITSGFAWNWIRQPPGNGLEWIGYISHSGSTSYNPSLKSRVTISVDTSKNQFSLKLSSVTAADTAVYYCARGYRSPWFAYWGQGTTVTVSS VL: DIQMTQSPSSLSASVGDRVTITCKASQNVGANVAWYQQKPGKAPKSLIYSASYRYSGVPSRFSGSGSGTDFTLTISSLQPEDFATYYCQQYNSYPTFGGGTKVEIK"
3,2.21,"3E6 VH2/3E6 VL0 (antibody, V domains shown, Humanized 3E6; VH and VL cloned into vectors with constant regions (CH1-FC/CL) and expressed in 293F cells; also called humanized 3E6 VH2/VL0) VH: QVQLQESGPGLVKPSQTLSLTCTVSGYSITSGFAWNWIRQPPGKGLEWMGYISHSGSTSYNPSLKSRVTISVDTSKNQFSLKLSSVTAADTAVYYCARGYRSPWFAYWGQGTTVTVSS VL: DIQMTQSPSSLSASVGDRVTITCKASQNVGANVAWYQQKPGKAPKSLIYSASYRYSGVPSRFSGSGSGTDFTLTISSLQPEDFATYYCQQYNSYPTFGGGTKVEIK"
4,467,"3E6 VH1/3E6 VL0 (antibody, V domains shown, Humanized 3E6; VH and VL cloned into vectors with constant regions (CH1-FC/CL) and expressed in 293F cells; also called humanized 3E6 VH1/VL0) VH: QVQLQESGPGLVKPSQTLSLTCTVSGYSITSGFAWNWIRQFPGNGLEWMGYISHSGSTSYNPSLKSRVTISVDTSKNQFSLKLSSVTAADTAVYYCARGYRSPWFAYWGQGTTVTVSS VL: DIQMTQSPSSLSASVGDRVTITCKASQNVGANVAWYQQKPGKAPKSLIYSASYRYSGVPSRFSGSGSGTDFTLTISSLQPEDFATYYCQQYNSYPTFGGGTKVEIK"

# Molecular target: T2, human TIM-3 recombinant protein (TIM-3-his) (human, UniProt Q8TDQ0 22-202)
# T2 construct: also called TIM-3 protein; not shown: His tag
# Test: biosensor (HFC sensor, Probe Life): antibody captured, TIM-3-his in solution, 1:1 fit;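 also: antigen applied as a twofold dilution series, association and dissociation phases recorded, KD obtained as koff divided by kon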
Binder,Kd [nM],koff [s⁻¹],kon [M⁻¹ s⁻¹]
"CH 5# (antibody, V domains shown) VH: QVQLQQSGPDLVKPGASVKISCKASGYSFTGYYMHWVKQSHGKSLEWIGRVNPNNGGTDYDQKFKGKAILSVDKSSNTAYMELRSLTSEDSAVYYCAREGEYFDYYAMDYWGQGTTVTVSS VL: DIELTQSPASLAVSLGQRATISCRASESVEYYGTSLMQWYQQKPGQPPKLLIYAASNVESGVPARFSGSVSGTDFSLNIHPVEEDDIAMYFCQQSRKVPITFGSGTKLEIK",188,0.00153,8130
"36B11 (antibody, V domains shown) VH: QVTLKESGPGILQPSQTLSLTCSFSGFSLSTSGMGVGWIRQPSGKGLEWLAHIWWDDVKRYNPALKSRLTISKDTSSSQVFLKIASVDTADTATYYCVRTFITTTTMDYWGQGTSVTVSS VL: QIVLTQSPTIMSASPGEKVTLTCSASSGISSSYLYWYQQKPGSSPKLWIYGTSNLASGVPARFSGSGSGTSYSLTISSLEAEDAASYFCHQWSNYPYTFGGGTKLEIK",0.432,0.000383,885000
"18C6 (antibody, V domains shown) VH: QVQLQQPGAEIVMPGASVKMSCKASGYKFTDFLMHWVKQRPGQGLEWIGAIDTSDSYASYNQKFKGKATLTLDESSSTAYMQLSSLTSEDSAVYYCSREAMDYWGQGTSVTVSS VL: DVVMTQTPLSLPVSLGDQASISCRSSQSLVHSNGNTYLHWFLQKPGQSPKLLIYKVSNRFSGVPDRFSGSGSGTDFTLKISRVEAEDLGVYFCCQSTHVPPLTFGAGTKLELK",0.207,0.00012,580000
"36A2 (antibody, V domains shown, also called 36A12) VH: DVQLVESGGGLVQPGGSRKLSCAASGFTFSSFEMHWVRQAPETGLEWVAYISGGSTTIYYADTMKGRFTISRDNPENTLFLQMTSLRSEDTAIYYCVRSYYGLLDYWGQGTTLTVSS VL: NIMMTQSPSSLSVSTGEKVTMSCKSSQSVLHSSNQKNFLAWFQQKPGQSPKLLIYWASTRESGVPDRFTGSGSGTDFTLTINNVQPEDLAVYYCHQYLSSLTFGAGTKLELK",1.01,0.000559,553000
"38F8 (antibody, V domains shown) VH: EVQLQQLGAELVKPGASVKISCKASGYIFTDYSMDWVKQSHGESLEWIGDINPNYDSLSYNQKFKGKATLTVDKSSSTAYMELRSLTSEDTAVYYCARRGYGKDYFDFWGQGTSLTVSS VL: TWGMTQTTSSLSASLGDRVTISCRASQDISNYLNWYQQKPDGTVKLLIYHTSRLYSGVPSRFTGSGSGTDYSLTISNLEQEDIATYFCQQGNTLPLTFGAGTKLELK",1.74,0.00255,1.47e+06
"38A8 (antibody, V domains shown) VH: QVQLQQPGAELVKPGASVKMSCKASGYTFTTYNMHWVKQTPGQGLEWIGGIYPGNGDTSYNQKFKGKATLTADKSSSTAYMQLSSLTSEDSAVYYCARSYYTFDAMDCWGQGTSVTVSS VL: DIVMSQSPSSLAVSAGEKVTMSCKSSQSLLNSRTRKNYLAWYQQKPGRSPKLLIYWASTRESGVPDRFTGGGSGTDFTLTISSVQAEDLAVYYCKQSYSLLTFGAGTKLELK",1.36,0.00126,928000

# Other lines, results leading:
Kd [nM],koff [s⁻¹],kon [M⁻¹ s⁻¹],Binder
2.84,0.00197,692000,"84G10 (antibody, V domains shown) VH: QVQLQQSGGELVRPGSSVKISCKASGYAFSSYWMNWVKQRPGQGLEWIGQIYPGEGDTNYNGKFKGKATLTADKSSSTAYMQLSSLTSEDSAVYFCARGHFYGSSYDWFAYWGQGTLVTVSA VL: DIQMTQSPASLSASVGETVTITCRASENINSYLAWYQQKQGKSPQLLVYHAKTLASGVPSRFSGSGSGTQFSLKINSLQPEDFGSYYCQHHYGTPLTFGAGARLELK"
6,0.00903,1.51e+06,"50H9 (antibody, V domains shown) VH: EVQLVESGGDLVKPGGSLKLSCAASGFTFSTNGMSWVRQIPDKRLEWVATISSGGSNTYYPDSVKGRFTISRDNAKNTLYLQMSSLKSEDTAMYYCARRSELGPFAYWGQGTLVTVSA VL: DVQMIQSPSSLSASLGDIVTMTCQASQGSSVNLNWFQQKPGKSPKLLIHGSNILEDGVPSRFSGSRYGTDFTLTISSLENEDMATYFCLQHSYLPYTFGGGTKLEIK"
512,0.00253,4930,"CH 8# (antibody, V domains shown) VH: QVKLQQSGPDLVKPGASVKISCKASGYSFTGYYMHWVKQSHGKSLEWIGRVYPNNGGTSYNQKFKGKAILTVDKSSSTAYMELRSLTSEDSAVYYCAREGEYFDYFAMDYWGQGTTVTVSS VL: DIELTQSPASLAVSLGQRATISCRASESVEYYGTSLMQWYQQKPGQPPKLLIYAASNVESGVAARFSGSGSGTDFSLNIHPVEEDDIAMYFCQPSRKVPYTFGGGTKLEIK"
553,0.00287,5190,"CH 9# (antibody, V domains shown) VH: QVKLQESGPGLVAPSQSLSITCTVSGFSLTGYGVHWVRQPPGKGLEWLGMIWGDGSTDYNSALKSRLSISKDNSKSQVFLKMNSLQTDDTARYYCARDRGNHWYFDVWGQGTTVTVSS VL: DIELTQSPAILSASPGEKVTMTCRASSSVSYMHWYQQKPGSSPKPWIYATSNLASGVPARFSGSGSGTSYSLTISRVEAEDAATYYCQQWSSNPLTFGAGTKLEIK"
2.21,0.0019,857000,"40F11 (antibody, V domains shown) VH: QIQLVQSGPELKKPGETVRISCKASGYTFRTAEMQWVQKMPGRGLKWIGWINTRSGVPKYAEDFKGRFALSLETSATTAYLQISNLKNEDTATYFCTRGTYAMDYWGQGTSVTVSS VL: ENVLTQSPAIMSASPGEKVTMTCRASSIVSSSYLHWYQQKSGASPKLWIYSTSNLPSGVPARFSGSGSGTFYSLTVSSVESEDAATYYCQQYSGYPYTFGGGTKLEIK"

# Molecular target: T3, mouse TIM-3 (mouse, UniProt Q8VIM0 20-281)
# T3 construct: whole, on cells
# Test: flow cytometry on cells stably expressing mouse TIM-3, PE-labelled secondary antibody; concentration not shown
row,binding result,Binder
1,no binding,"18C6 (antibody, V domains shown) VH: QVQLQQPGAEIVMPGASVKMSCKASGYKFTDFLMHWVKQRPGQGLEWIGAIDTSDSYASYNQKFKGKATLTLDESSSTAYMQLSSLTSEDSAVYYCSREAMDYWGQGTSVTVSS VL: DVVMTQTPLSLPVSLGDQASISCRSSQSLVHSNGNTYLHWFLQKPGQSPKLLIYKVSNRFSGVPDRFSGSGSGTDFTLKISRVEAEDLGVYFCCQSTHVPPLTFGAGTKLELK"
